Experimental data from patent US8288112B2, “Protein, an antibody and measurement of the protein” (P&M Venge AB, priority 2006, dated 2012).

Key:
[1] = Positional specificity (sn-2) assay with radiolabeled phosphatidylcholine; assay type: biochemical; details: 1-palmitoyl-2-[1-14C]palmitoyl-PC, 20 h at 37° C.
Description: Positional specificity of the purified enzyme was determined using 1-palmitoyl-2-hydroxyl-phosphatidylcholine (1-palmitoyl-2-hydroxyl-PC) and 1-palmitoyl-2-[1-^14C]palmitoyl-phosphatidylcholine (1-palmitoyl-2-[1-^14C]palmitoyl-PC) as substrates. The hydrolyzing activity of the enzyme at the position of sn-1 acyl ester bonds of glycerophospholipids was determined as described above using 1-palmitoyl-2-hydroxyl-PC as substrate. […] Radiolabeled fatty acids were quantified by scintillation counting.
Experiment D: Detection of phopholipase A2 activity. Radioactive phospholipid, 1-palmitoyl-2-[1-^14C]palmitoyl-PC was incubated without (Control) or with 1 μg of the purified protein (stored at 4° C. 16 w) for 20 h at 37° C. and radioactivity was counted as described in the materials and methods section.

[2] = Enzyme assay: free fatty acid release from phospholipid substrates (NEFA-C kit); assay type: biochemical; details: for activity increase by pre-incubation with released materials from PMA-induced neutrophils: partly activated protein 0.5 μg stored for 19 weeks
Description: Enzyme assay. The reaction mixture (40 μl final volume) contained 10 mM substrates, 100 mM phosphate buffer containing 3 mM of sodium azide (NaN3) and 0.5% Triton X-100, pH 7.4, and 0.5 μg of enzyme or as indicated. Since the formation of the product (fatty acid) was linear with time for at least 24 h under the standard conditions, the reaction mixture was incubated for 18-20 h and the reaction was stopped by cooling on ice. Free fatty acid (FFA) was determined by means of the NEFA-C kit (WAKO chemicals, Neuss, Germany) according to the instructions of the manufacturer.
Experiment A: Didecanoyl-PC was incubated with the purified protein at different time of storage and free fatty acid release was measured. Enzymatic reactions were carried out with 0.5 μg of the purified protein for 20 h at 37° C.
Experiment B: Free fatty acid release from phospholipids, didecanoyl-PC (Dideca-PC), dipalmitoyl-PC (Dipalmi-PC), phosphatidylinositol (PI), phosphatidylethanolamine (PE) and lysophosphatidylcholine (Lyso-PC) was measured. Enzymatic reactions were carried out with 0.5 μg of the purified protein (stored at 4° C. for 15 w) for 18-20 h at 37° C.
Experiment C: The purified protein (stored at 4° C. for 16 w) was preincubated at room temperature or 37° C. for 15 min with released materials (0.5 μg) induced from neutrophils by PMA before incubation with Didecanoyl-PC. Enzymatic reactions were carried out with 0.5 μg of the protein for 20 h at 37° C. and free fatty acid release was measured.
Analyses of the pH optimum, Km and Vmax. The purified protein (0.5 μg) was added to tubes containing Didecanoyl-PC at varying pH (4.0-9.0). The Km and Vmax were calculated from Hanes plots of s/vi on Didecanoyl-PC concentration (s).

B1: HPLB-II: Novel phospholipase B from human neutrophil granules; about 130 kDa oligomer of 25 and 45 kDa fragments of hypothetical protein FLJ22662 (protein)
chain 1: MPAEKTVQVKNVMDKNGDAYGFYNNSVKTTGWGILEIRAGYGSQTLSNEIIMFVAGFLEGYLTAPHMNDHYTNLYPQLITKPSIMDKVQDFMEKQDKWTRKNIKEYKTDSFWRHTGYVMAQIDGLYVGAK
chain 2: VLPGFENILFAHSSWYTYAAMLRIYKHWDFNIIDKDTSSSRLSFSSYPGFLESLDDFYILSSGLILLQTTNSVFNKTLLKQVIPETLLSWQRVRVANMMADSGKRWADIFSKYNSGTYNNQYMVLDLKKVKLNHSLDKGTLYIVEQIPTYVEYSEQTDVLRKGYWPSYNVPFHEKIYNWSGYPLLVQKLGLDYSYDLAPRAKIFRRDQGKVTDTASMKYIMRYNNYKKDPYSRGDPCNTICCREDLNSPNPSPGGCYDTKVADIYLASQYTSYAISGPTVQGGLPVFRWDRFNKTLHQGMAEVYNFDFITMKPILK
removal of fatty acid from the sn-2 position [1]: removed fatty acid from the sn-2 position | pH optimum ([2]; didecanoyl-PC as substrate, incubated at 37° C.): 7.4 | Vmax ([2]; didecanoyl-PC substrate, Hanes plots, protein stored for 15 weeks): 21.4 nM/min/mg | deacylation activity ([2]; freshly purified protein, didecanoyl-PC, dipalmitoyl-PC, PI, PE, Lyso-PC substrates): No activity was detected | activity increase by pre-incubation with released materials from PMA-induced neutrophils ([2]; pre-incubation 15 min at 37° C.): ~30% | activity increase by pre-incubation with released materials from PMA-induced neutrophils ([2]; pre-incubation 15 min at room temperature): about 10% | deacylation activity on didecanoyl-PC ([2]; purified protein stored at 4° C. for some period of time): removed fatty acid from didecanoyl-PC | deacylation activity on Lyso-PC ([2]; stored purified protein): showed deacylation activity | deacylation activity on PE ([2]; stored purified protein): showed deacylation activity | deacylation activity on PI ([2]; stored purified protein): showed deacylation activity
